The source of these data is the DeepSol protein solubility set.

The data set can be described thus: soluble on expression in E. coli; label from the status in PepcDB or PDB records.
As to “MAGDPMKVAFITLGCRVNSYESEAMAEKFIKSGWEIVDNDEKADAYVINTCTVTNMGDRKSRQMISRARKANKDAVIAAVGCYSQVEPEKVAEIEGVDIVLGTKNKGDIIHYVNKFIEERNQIVNVKDVFTDKKFEDLNIDEYQDKTRAFLKIQDGCNRFCSYCLIPYARGGVCSKNPEKVIGEIKRLAEHGFKEIILSGIHIASYGDDLKGDWNLISIIEKAEQIDGIERIRIGSIEPRFFDEDTISKIKNMKKMCPHFHLSLQSGCTETLERMNRKYTAEEYKEIVYKLRENISDVSITTDVIVGFPGETDEEFEKTYDFLKEIELAKMHVFKYSPREGTKAAAMKNQINGNVKDKRSAELIELDKINEKKFMSKFLDREMDVLFEKKLEENEDLYEGYTPNYIKVVVKSSEDISRKILKVKLTEIQDEHLLGELILYKLEHHHHHH”, the “soluble on expression in E. coli” value is “soluble”.
For “MGSDKIHHHHHHMSRAHVDHRDLVRFAEERVNLPKEKADEFRAQARRLREKLEGYLAEHPDFALKKMLLSGSLAKGTALRSLNDIDVAVYISGSDAPHDLQALLNYLAEKLRKAFPNFSPEQVQPQTYSVTVNFRGTGLNVDVVPVLYAGLPDWRGNLISQDDGSFLETSIPLHLECARKRKQAQPTHFAQVVRLIKYWARRMKQEHDGFRFKSFMIEMILAKLTDNGTDLSDYPEALQSFFTYVAESNLSERIVFEDYYQASTVAPSADRVQIIDPINASNNVARLYTAQNAAAIVDAALDAGDAIDAALKAPTKELTVHYWQKVFGSSFQG”, the “soluble on expression in E. coli” value was “not soluble”.
Consider “MGSDKIHHHHHHMRHDKFAGPAYTIQIVSNALDMLELLAMRPANPSLGRLAGSLNLTRNKAYRLLSTLCERGLVEQDPETGTYAIGVAALELAQRLIRQAPVVNHAHPIMEELARKHDEAVYMTVLRGDDVVFLDMVDCERQVKATPLIGRRFPYFTNAAGKAIKALEGADPLNLLKKRGRKNNSLDVGSLLSELHEIRHKGVAVDCGGLGDGIVSVAVAVRDYAGKVVGAITMLVPSFRAVADRLESEIIPSLQEGADLLSMKLGHGPC”, for which the “soluble on expression in E. coli” value is on record as “not soluble”.
As to “MGVALAAMCLMSAQAQRRNEIQVPNLNGYTTLKCDFHMHSVFSDGLVWPTVRVDEAYREGLDAISLTEHIEYRPHKKDIIADHNRSYELSQKQAKKLGILLIRGSEITRSMPPGHFNAIFLNDSNPLEQKAYKDAFNEAKKQGAFIFWNHPGWARQQPDSTLWWPEHTQLYNDGCMHGIEVANGGLFMPEAIQWCLDKNLTMIGTSDIHQPIQTDYDFSKGEHRTMTFVFAKERSPEGIREALDNRRTAVYYRELVIGREEILRPFFEKCVDIKEVKRTEKEVTFSVMNATDLVLKLKKTAHDPSLVYFREMTLKPHTQHTISVKFDNGIKGGDCNFEVTNFIVAPDKGLDYTIKL”, the “soluble on expression in E. coli” value was “not soluble”.
Take “MGSDKIHHHHHHMIFTLPNTTTQEIAKTLVKIRDTGGQVTTSRVLTLIVVARDTSDVEGIIRATNEASQEHPSRVIILVAGSHEGESQVDAEVRIGGDAGASEMILIKLAGRVAKHLVHVVTPLLLPDTPIVAWWPSSAPINPAEDPIGKIAQRRITDSHFDPPVDALYNRRNHYAPGDSDFSWARLTPWRGVLASSLDQAPYEMVQDVRVYGESDCPSVDLAAGWLCERLGISVERHNYGSGSAAFDDAGLAKIPVKRIELERPSGCVVIEALDDDQTLSVSIPGRSTAHVAVTRRSQADCLAEELRHLDPDIAYARALRGLSRVSYPTQ”: the “soluble on expression in E. coli” value is given as “not soluble”.
On to “GSHMASREQTMENILKAAKKKFGERGYEGTSIQEIAKEAKVNVAMASYYFNGKENLYYEVFKKYGLANELPNFLEKNQFNPINALREYLTVFTTHIKENPEIGTLAYEEIIKESARLEKIKPYFIGSFEQLKEILQEGEKQGVFHFFSINHTIHWITSIVLFPKFKKFIDGLVPRGSGGLVPRGSGDLVSRIISALTDKPNI”, for which the “soluble on expression in E. coli” value is “soluble”.
Regarding “MGSDKIHHHHHHVKLAAVDIGSNAIRFQVSKILEYNGMIMFKKMEYVRFPLRLGEDVFRLGMISAEKEMKFIKLIQTFKNLFELYEVDDYMISATSAMRESKNGRDIVLKVKGLVGVDIDIIDGDKEAELINTVLHNELDDNSYIHIDVGGGSTELNLFVNRKKIAARSFKIGSVRRLQGLDAPEEWESMKQWVKDNIDKLPKPVTAIGTGGNIGKIFELGTTEKSKKDKRMISLKKIEEVQHNISQYSYEDRINVLMLNSDRADVIIPASEIYTSVMEFAKAKNMLVPEVGLKDGLMLMLYERNKHLHITDLDSIRNVNKYQK”, the “soluble on expression in E. coli” value was “not soluble”.
In the case of “MGAGEKGIVEKEGYQLDTRRQAQAAYPRIKVLVIHYTADDFDSSLATLTDKQVSSHYLVPAVPPRYNGKPRIWQLVPEQELAWHAGISAWRGATRLNDTSIGIELENRGWQKSAGVKYFAPFEPAQIQALIPLAKDIIARYHIKPENVVAHADIAPQRKDDPGPLFPWQQLAQQGIGAWPDAQRVNFYLAGRAPHTPVDTASLLELLARYGYDVKPDMTPREQRRVIMAFQMHFRPTLYNGEADAETQAIAEALLEKYGQD”, the “soluble on expression in E. coli” value is “soluble”.
In the case of “QRKNNNKRWYFTREQLENSPSRRFGLDPDKELSYRQQAANLLQDMGQRLNVSQLTINTAIVYMHRFYMIQSFTRFHRNSVAPAALFLAAKVEEQPKKLEHVIKVAHTCLHPQESLPDTRSEAYLQQVQDLVILESIILQTLGFELTIDHPHTHVVKCTQLVRASKDLAQTSYFMATNSLHLTTFSLQYTPPVVACVCIHLACKWSNWEIPVSTDGKHWWEYVDATVTLELLDELTHEFLQILEKTPNRLKRIWNWRACQAAKKT”, the “soluble on expression in E. coli” value is given as “soluble”.
Next, “GSSSLIRRVISTAKAPGAIGPYSQAVLVDRTIYISGQIGMDPSSGQLVSGGVAEEAKQALKNMGEILKAAGCDFTNVVKTTVLLADINDFNTVNEIYKQYFKSNFPARAAYQVAALPKGSRIEIEAVAIQGPLTTASL”: “soluble”; “MGGVMSYFRGLFGAREMRILILGLDGAGKTTILYRLQVGEVVTTIPTIGFNVEQVEYKNLKFQVWDLGGQTSIRPYWRCYYANTDAIIYVVDSADRDRVGISRQELATMLQEDELQGAVLAVLANKQDIAGCLTETEVYKALGLDALRNRTIQIFKTSASKGEGLDPAMDWLANQLQQKK”: “not soluble”.
On to “SLQLHFTNDALPDNVSTDFQNLNKFSEQQFVSLTDILYQFLLEPKESERFLHQLTEFAGENGMSAGPLRALMKSILLLPHGALKRNLTAEQIKLDLLSLGLNEDKASHFSDQWRVHYPVLARLAVGQTLMVNQLVDMEWKFGVTVGTSELQKTGNIFLQLKLVIRKGNMTENVYMELTLPQFYSFLHEMERAKASMDCFS”, for which the “soluble on expression in E. coli” value is on record as “soluble”.
Next, “STSTNNELTVSMMGTSTKEEVVSKVDEEDDDSSSDSDMDYGSDSEWAGYNVLAETEPEWDVDSFDGHEFKINPRVRQMYRSQELYDKYYNNRLKAFENKGFLSDHLNGIYDVYLDEKMDGYNSTRDFMAELANVCVKKHNETKGNTLELVNVVRATERGAATWRLYITFMAREFPDGPLVEYQAKVIKFLGVKDPFPVLCRAAPKPGI”: “soluble”.
The entry for “MKFEILQQLNAERAARRPAIVVTDTATGAQRLVKAADIAADPLAAELGKQLRMGKSASIEIDGRKLFLNVYAPTAKLVIVGAVHISQALAPLARSLGYDVTVVDPRTAFASPERFPDVPLIAEWPDVALPPLNIDHYTAFVALTHDPKIDDPALLHAFARDCFYIGALGSKKTHAKRLERLKGQGASDADLGRIHAPIGLAIGAVSPSEIAVSIMAEITAALRLPASSKAAAA” is “not soluble”; for “MAHHHHHHMDYNVSTAAVVLDCGSFHSRAGFGGEKGPRLDVPTLVGYPRHRSIAMAAGMNEQEVGEEALLKQGILDVHHPIRNGFINDWGDVEKLWSHLFFNELRVSPETHCFLLTQPVNTPAAQRERTLEIMMETFHAHSLYLGTSQVLSLYSYGLTTGLVVDSGKDVTHAVPIHEGYALVRHVTQSPVAGAALTRYLGGLLREQGYALGTATEQELLNGAKEDLCYVRPRAHVQRGAVSDIYTPASGTSAGVSPAAASAASRRSTQLTGGIKGSADSASSATATTAVTAKESFMESAAEKHLDVDGGLTPTAVMGATEDFLLPDGQRIPLAAERYDTAEVLFNYSLLALMDSNGKDSSTYEPRCKVRTDMGDLFRPSFEKGISWLPFAAVNNCEAALRPQLYANMVLAGGSTSFPGLKARLESEVRQLYRESHPSEAVVPIQVRDMPCRTYSTWLGGSMLAQTAVFQHLVVSRKEYEEEGARVIHYKSL” it is “not soluble”; for “MEPPKPEYAPTAHSRYNSQYFYWLFLDLFHLEPSMKLFPSLATLTLCSLMSAPLLAAEQAPELTGCAAKRQAIMNQIEQAKAHGNSNQQAGLERALSEVTAHCTDASLKKERENKVLEAKHEVSRRQADLEKAMKKGDSEKINKRKDKLAESRKELQQALDELDKLEHHHHHH” it is “not soluble”.
For “MTRACNLYVFKNKYVSFNLLDSPNSNPKLLKISLPFNFMDEFEGLLKAVGSAPWYKLIGMVPKLQGDRVVVEMEIDRSKHLQALGTTHGGAIASVLDSAIGLNVNREVVKMGKTAVTAQLNIHYIRPVTEGKIVGVGMPMHIGSKVTVGYGEVRNEEGELVAAGTATFYIIDRRFRD”, the “soluble on expression in E. coli” value is listed as “soluble”.
“MSLNADTPLQLLGGLTAAEFLRDYWQRKPLLVRQAIPDFESPLSADELAGLSLEESVESRIVLEHGKTPWEMRRGPFQEEDYQHLPEQDWTLLVQAVDQFVPEVAQLLEQFRFLPSWRIDDVMISYAAPGGGVGPHFDNYDVFLLQGHGRRRWKVGQMCSSDSPLREHADLRILADFEQSDEWVLEPGDMLYLPPRLAHYGIAEDECMTYSIGFRAPSAAEVLTHFTDSLGQFLSDEERYTDAGLQPVGDDPHQIQRDALERLQGLIQEHMSDERLLLTWFGQFMTEPRYPELVAGEDIPEEELFGALEDGALLVRNPSARLAWSEIDIGLVLFASGQSVLLPGQLKELLKLVCSADALHLENLGQWLADDDARKLLAELVKQGSLEFADEEGGSHHHHHH”: the “soluble on expression in E. coli” value was “soluble”.
The entry for “MGTRCAVTPELRFVLAFPDVYEVGMSHLGLQILYGVLNTLDGVAAERAYAPWPDREAQLRAEGIPLATLESGTSLDRADIVGFTLQYELSYTNILNMLDLAGIPLLASERDERHPLIIGGGPCACNPEPLADFFDAFLLGDGEEAVIEIAEAFRAWKRAGGARSGLLERLAGIAGVYVPSFFAVRYGDNNRIAAVEPLRPDYGPVKRRFLAELEPAAYPTAPVVPFLKTIHDRVSVEISRGCTRGCRFCQAGYLYRPVRERSPEKILALVEETLRATGYDEISLLSLSTGDYGCLTPLLTELMARYASERIAVSLPSMRVGSLNDELVEAIRTVRKTGFTLAPEAGSERLRRVINKGISEEDLLRNAFEAYSHGWRLIKLYFMIGLPGETEEDLHGIVELARKVKMEGRRAGSGGEVNVSVSTFVPKAHTPFQWEPQIPVGEILEKQGLLRRELRARKLVFKWHDAPLSFMEGVFARGDRRLGAALRRAWELGCRFDGWGDRFDEAAWRTAFEETGIDPAFYHRRREPDEVLPWGHLDFGVTREFLLRELELSRQGAATEDCRTGRCTGCGVCDFSQVRLRLADDGLEHHHHHH” is “not soluble”.
Take “GMEPLKVEKFATANRGNGLRAVTPLRPGELLFRSDPLAYTVCKGSRGVVCDRCLLGKEKLMRCSQCRVAKYCSAKCQKKAWPDHKRECKCLKSCKPRYPPDSVRLLGRVVFKLMDGAPSESEKLYSFYDLESNINKLTEDRKEGLRQLVMTFQHFMREEIQDASQLPPAFDLFEAFAKVICNSFTICNAEMQEVGVGLYPSISLLNHSCDPNCSIVFNGPHLLLRAVRDIEVGEELTICYLDMLMTSEERRKQLRDQYCFECDCFRCQTQDKDADMLTGDEQVWKEVQESLKKIEELKAHWKWEQVLAMCQAIISSNSERLPDINIYQLKVLDCAMDACINLGLLEEALFYGTRTMEPYRIFFPGSHPVRGVQVMKVGKLQLHQGMFPQAMKNLRLAFDIMRVTHGREHSLIEDLILLLEECDANIRAS”: the “soluble on expression in E. coli” value is given as “soluble”.
